Measurements: article PMC9371898

Columns and labels:
Test in all cases: SEC
[1] = target: Rep1 Triple Mutant (R248A-Y251A-K253A) (Staphylococcus aureus (SaPI1)) (UniProt Q8GNZ1)
[2] = target: PriRep5-ΔCTD (residues 676-790 removed) (Staphylococcus aureus (SaPI5, strain USA300))
[3] = target: PriRep5 K591A (Staphylococcus aureus (SaPI5, strain USA300))

Substance: Rep1 Triple Mutant (R248A-Y251A-K253A) (from UniProt Q8GNZ1 1-66) (natural protein)
- stoichiometry N [1]: 6

Substance: PriRep5-ΔCTD (residues 676-790 removed) (domain or fragment)
- stoichiometry N [2]: 6

Substance: PriRep5 K591A (natural protein)
- stoichiometry N [3]: 6
